One protein from FireProtDB (doi:10.1002/prot.340220405) can be followed below.

For the data set the following is noted: Escherichia coli (strain K12); pH 8; 25 °C; Urea; CD; Na-PIPES 50 mM; reversible: yes; whole UniProt chain shown.

B1: Chemotaxis protein CheY wild type, P0AE67 (protein)
chain: MADKELKFLVVDDFSTMRRIVRNLLKELGFNNVEEAEDGVDALNKLQAGGYGFVISDWNMPNMDGLELLKTIRADGAMSALPVLMVTAEAKKENIIAAAQAGASGYVVKPFTAATLEEKLNKIFEKLGM
For the protein B1, the denaturant m value was found to be 1.6 kcal/mol/M, the “denaturant midpoint (higher = more stable)” value stood at 3.5 M and the unfolding free energy was 5.6 kcal/mol.
